Experiments:
[1] = target: PD-1 (programmed cell death protein 1), as parameterised in the receptor occupancy model (UniProt Q15116 25-167, limits assumed); assay: assay not stated; parameter of the mPBPK tumor receptor occupancy model
[2] = target: T1, LAG3 (lymphocyte activation gene-3), as parameterised in the receptor occupancy model (UniProt P18627 23-450, limits assumed); assay: assay not stated; parameter of the mPBPK tumor receptor occupancy model; input parameter of the PK/receptor occupancy model; assay not stated
T1 construct: also called CD223
T1 sequence (looked up): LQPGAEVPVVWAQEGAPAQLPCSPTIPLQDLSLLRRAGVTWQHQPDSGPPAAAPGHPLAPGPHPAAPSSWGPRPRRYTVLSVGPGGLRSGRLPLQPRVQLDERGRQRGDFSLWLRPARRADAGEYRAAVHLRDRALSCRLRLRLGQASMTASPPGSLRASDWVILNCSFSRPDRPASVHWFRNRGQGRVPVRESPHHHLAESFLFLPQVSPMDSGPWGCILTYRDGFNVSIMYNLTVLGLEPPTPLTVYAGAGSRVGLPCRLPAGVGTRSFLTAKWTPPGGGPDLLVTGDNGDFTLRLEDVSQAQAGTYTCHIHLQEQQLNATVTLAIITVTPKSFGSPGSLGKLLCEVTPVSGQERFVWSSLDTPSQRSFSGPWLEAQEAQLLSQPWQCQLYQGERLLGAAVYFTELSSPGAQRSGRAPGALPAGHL

Chain of PD-1 (programmed cell death protein 1), as parameterised in the receptor occupancy model (Q15116 25-167 limits assumed): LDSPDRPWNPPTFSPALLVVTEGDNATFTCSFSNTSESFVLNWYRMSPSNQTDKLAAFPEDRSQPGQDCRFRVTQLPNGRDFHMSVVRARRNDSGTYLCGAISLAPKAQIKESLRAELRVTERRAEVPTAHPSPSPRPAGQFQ

B1: RO7247669 (PD1-LAG3), anti-PD-1/LAG3 bispecific antibody (bispecific antibody, human IgG1, kappa, L234A L235A)
heavy 1: not shown
light 1: EVQLLESGGGLVQPGGSLRLSCAASGFSFSSYTMSWVRQAPGKGLEWVATISGGGRDIYYPDSVKGRFTISRDNSKNTLYLQMNSLRAEDTAVYYCVLLTGRVYFALDSWGQGTLVTVSSASVAAPSVFIFPPSDEQLKSGTASVVCLLNNFYPREAKVQWKVDNALQSGNSQESVTEQDSKDSTYSLSSTLTLSKADYEKHKVYACEVTHQGLSSPVTKSFNRGEC
heavy 2: EVQLLESGGGLVQPGGSLRLSCAASGFIFDDYTMNWVRQAPGKGLEWVAVISWDGGGTYYTDSVKGRFTISRDDFKNTLYLQMNSLRAEDTAVYYCAKGLTDTTLYGSDYWGQGTLVTVSSASTKGPSVFPLAPSSKSTSGGTAALGCLVEDYFPEPVTVSWNSGALTSGVHTFPAVLQSSGLYSLSSVVTVPSSSLGTQTYICNVNHKPSNTKVDEKVEPKSCDKTHTCPPCPAPEAAGGPSVFLFPPKPKDTLMISRTPEVTCVVVDVSHEDPEVKFNWYVDGVEVHNAKTKPREEQYNSTYRVVSVLTVLHQDWLNGKEYKCKVSNKALGAPIEKTISKAKGQPREPQVCTLPPSRDELTKNQVSLSCAVKGFYPSDIAVEWESNGQPENNYKTTPPVLDSDGSFFLVSKLTVDKSRWQQGNVFSCSVMHEALHNHYTQKSLSLSPGK
light 2: not shown
notes: also called PD-1 BsAb; bsAb RO7247669
For B1, the Kd [1] was 0.25 nM and the Kd [2] was 0.78 nM.

Source: patent publication US20240327519A1 (Genentech, published 2024)
